Measured values taken from patent publication US20130095092A1.

Biological target: Mannose 6-phosphate receptor (M6P receptor) on human MPS IIIB (NaGlu deficient) fibroblasts (human), P11717
Assay: cell-based or functional assay

Mannose 6-phosphate receptor (M6P receptor) on human MPS IIIB (NaGlu deficient) fibroblasts (human), P11717, sequence (P11717 41-2491): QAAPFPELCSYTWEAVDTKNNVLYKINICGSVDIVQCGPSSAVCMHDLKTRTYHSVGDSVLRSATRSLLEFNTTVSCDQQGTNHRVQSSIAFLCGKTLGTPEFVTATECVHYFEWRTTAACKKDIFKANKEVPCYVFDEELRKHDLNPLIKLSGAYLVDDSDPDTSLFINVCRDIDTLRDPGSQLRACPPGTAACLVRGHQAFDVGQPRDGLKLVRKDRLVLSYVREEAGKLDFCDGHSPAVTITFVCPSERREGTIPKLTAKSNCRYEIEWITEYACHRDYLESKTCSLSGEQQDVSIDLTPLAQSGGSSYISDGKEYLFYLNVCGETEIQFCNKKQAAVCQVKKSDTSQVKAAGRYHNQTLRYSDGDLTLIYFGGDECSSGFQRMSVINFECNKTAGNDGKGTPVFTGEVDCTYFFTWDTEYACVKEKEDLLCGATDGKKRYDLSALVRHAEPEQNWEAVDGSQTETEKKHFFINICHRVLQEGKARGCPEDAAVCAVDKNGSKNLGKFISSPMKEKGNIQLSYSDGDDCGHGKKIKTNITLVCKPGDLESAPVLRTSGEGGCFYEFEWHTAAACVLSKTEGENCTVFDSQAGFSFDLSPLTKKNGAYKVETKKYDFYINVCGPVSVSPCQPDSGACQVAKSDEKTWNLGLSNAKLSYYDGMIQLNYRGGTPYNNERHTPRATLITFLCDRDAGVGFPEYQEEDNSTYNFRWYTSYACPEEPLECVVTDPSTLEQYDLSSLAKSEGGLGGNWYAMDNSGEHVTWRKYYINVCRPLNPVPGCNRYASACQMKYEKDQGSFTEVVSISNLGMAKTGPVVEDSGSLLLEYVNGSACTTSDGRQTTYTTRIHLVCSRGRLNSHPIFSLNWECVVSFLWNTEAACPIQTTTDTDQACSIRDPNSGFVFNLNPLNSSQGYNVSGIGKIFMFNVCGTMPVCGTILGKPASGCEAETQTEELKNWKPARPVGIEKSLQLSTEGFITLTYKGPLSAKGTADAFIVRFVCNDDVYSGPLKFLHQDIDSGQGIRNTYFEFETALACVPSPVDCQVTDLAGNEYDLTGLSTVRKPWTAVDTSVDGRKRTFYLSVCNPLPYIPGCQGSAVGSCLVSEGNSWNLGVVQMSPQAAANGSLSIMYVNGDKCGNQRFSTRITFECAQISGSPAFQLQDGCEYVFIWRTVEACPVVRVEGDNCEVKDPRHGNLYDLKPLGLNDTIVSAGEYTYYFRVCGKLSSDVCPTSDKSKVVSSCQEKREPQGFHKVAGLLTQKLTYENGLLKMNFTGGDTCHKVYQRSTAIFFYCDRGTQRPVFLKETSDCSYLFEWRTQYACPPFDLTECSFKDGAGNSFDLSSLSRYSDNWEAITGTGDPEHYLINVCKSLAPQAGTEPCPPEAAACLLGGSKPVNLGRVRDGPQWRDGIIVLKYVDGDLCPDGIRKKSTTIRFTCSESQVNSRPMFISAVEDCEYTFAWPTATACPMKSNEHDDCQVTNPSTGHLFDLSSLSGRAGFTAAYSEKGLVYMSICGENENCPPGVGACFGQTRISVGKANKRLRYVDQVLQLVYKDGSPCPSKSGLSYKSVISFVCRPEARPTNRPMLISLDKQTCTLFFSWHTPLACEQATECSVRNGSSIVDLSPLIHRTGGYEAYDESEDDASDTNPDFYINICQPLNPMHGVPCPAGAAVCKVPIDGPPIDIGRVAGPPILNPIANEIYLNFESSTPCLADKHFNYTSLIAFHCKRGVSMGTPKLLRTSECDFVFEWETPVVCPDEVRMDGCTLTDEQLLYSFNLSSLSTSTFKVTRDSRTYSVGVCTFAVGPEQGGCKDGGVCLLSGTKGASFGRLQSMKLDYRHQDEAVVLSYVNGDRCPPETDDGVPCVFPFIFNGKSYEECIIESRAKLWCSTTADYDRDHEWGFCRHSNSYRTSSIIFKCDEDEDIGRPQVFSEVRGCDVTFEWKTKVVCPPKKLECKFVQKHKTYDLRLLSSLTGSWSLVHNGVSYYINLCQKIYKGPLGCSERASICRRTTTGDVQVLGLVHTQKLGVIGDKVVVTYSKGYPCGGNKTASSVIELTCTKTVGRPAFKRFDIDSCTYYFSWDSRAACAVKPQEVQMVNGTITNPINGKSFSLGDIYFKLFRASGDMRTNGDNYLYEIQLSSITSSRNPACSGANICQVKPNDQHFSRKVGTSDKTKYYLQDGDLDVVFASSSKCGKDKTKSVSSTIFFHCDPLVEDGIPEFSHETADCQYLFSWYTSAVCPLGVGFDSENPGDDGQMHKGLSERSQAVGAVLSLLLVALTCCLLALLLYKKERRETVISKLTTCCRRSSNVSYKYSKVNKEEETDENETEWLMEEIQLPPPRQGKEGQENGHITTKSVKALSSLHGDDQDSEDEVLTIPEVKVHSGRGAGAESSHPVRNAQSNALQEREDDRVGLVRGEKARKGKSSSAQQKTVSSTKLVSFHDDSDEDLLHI

M6P inhibition assay: concentration of free M6P monosaccharide that inhibits uptake of 30 µg/mL rhNaGlu into MPS IIIB fibroblasts (enzymatic activity): > 0.03 mM
M6P inhibition assay: inhibition of cellular uptake of 30 µg/mL rhNaGlu into MPS IIIB fibroblasts by 1 mM free M6P (% inhibition of uptake): > 90
NaGlu activity in MPS IIIB fibroblasts after 24 h uptake of rhNaGlu, relative to wild-type fibroblasts (% of wild-type activity): 50
B1: recombinant human N-acetyl-alpha-D-glucosaminidase (rhNaGlu) produced from a transgenic avian (Gallus), P54802 24-743 (enzyme)
chain: DEAREAAAVRALVARLLGPGPAADFSVSVERALAAKPGLDTYSLGGGGAARVRVRGSTGVAAAAGLHRYLRDFCGCHVAWSGSQLRLPRPLPAVPGELTEATPNRYRYYQNVCTQSYSFVWWDWARWEREIDWMALNGINLALAWSGQEAIWQRVYLALGLTQAEINEFFTGPAFLAWGRMGNLHTWDGPLPPSWHIKQLYLQHRVLDQMRSFGMTPVLPAFAGHVPEAVTRVFPQVNVTKMGSWGHFNCSYSCSFLLAPEDPIFPIIGSLFLRELIKEFGTDHIYGADTFNEMQPPSSEPSYLAAATTAVYEAMTAVDTEAVWLLQGWLFQHQPQFWGPAQIRAVLGAVPRGRLLVLDLFAESQPVYTRTASFQGQPFIWCMLHNFGGNHGLFGALEAVNGGPEAARLFPNSTMVGTGMAPEGISQNEVVYSLMAELGWRKDPVPDLAAWVTSFAARRYGVSHPDAGAAWRLLLRSVYNCSGEACRGHNRSPLVRRPSLQMNTSIWYNRSDVFEAWRLLLTSAPSLATSPAFRYDLLDLTRQAVQELVSLYYEEARSAYLSKELASLLRAGGVLAYELLPALDEVLASDSRFLLGSWLEQARAAAVSEAEADFYEQNSRYQLTLWGPEGNILDYANKQLAGLVANYYTPRWRLFLEALVDSVAQGIPFQQHQFDKNVFQLEQAFVLSKQRYPSQPRGDTVDLAKKIFLKYYPRWVAGSW
modifications: here or on the partner: glycosylated; glycans carry mannose-6-phosphate (3.2 moles of M6P per mole of protein), glycosylation sites not stated
